Molecular target: mutant M9R α-tropomyosin_(slow) (human) (UniProt P06753)
Assay: far-Western, overlay or dot blot

Sequence of UniProt P06753 (P06753 whole entry M9R): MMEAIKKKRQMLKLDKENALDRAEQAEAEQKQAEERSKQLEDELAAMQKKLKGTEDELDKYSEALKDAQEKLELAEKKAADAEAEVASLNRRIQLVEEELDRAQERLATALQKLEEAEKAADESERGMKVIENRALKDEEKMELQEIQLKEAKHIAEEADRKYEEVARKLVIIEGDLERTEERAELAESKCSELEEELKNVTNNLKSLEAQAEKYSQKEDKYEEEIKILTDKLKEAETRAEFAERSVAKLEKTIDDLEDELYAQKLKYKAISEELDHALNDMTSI

percent of the binding to wild-type α-tropomyosin (slow): 10%
Substance: Recombinant human Tmod1 protein (from UniProt P28289 1-359) (natural protein)
